Test results reported in patent EP4725969A1 (Latticon (Suzhou) Biopharmaceuticals Co., Ltd., dated 2024).

T1: recombinant human HER4 extracellular domain (human, UniProt Q15303 26-651)
T1 construct: extracellular domain
T1 sequence (looked up): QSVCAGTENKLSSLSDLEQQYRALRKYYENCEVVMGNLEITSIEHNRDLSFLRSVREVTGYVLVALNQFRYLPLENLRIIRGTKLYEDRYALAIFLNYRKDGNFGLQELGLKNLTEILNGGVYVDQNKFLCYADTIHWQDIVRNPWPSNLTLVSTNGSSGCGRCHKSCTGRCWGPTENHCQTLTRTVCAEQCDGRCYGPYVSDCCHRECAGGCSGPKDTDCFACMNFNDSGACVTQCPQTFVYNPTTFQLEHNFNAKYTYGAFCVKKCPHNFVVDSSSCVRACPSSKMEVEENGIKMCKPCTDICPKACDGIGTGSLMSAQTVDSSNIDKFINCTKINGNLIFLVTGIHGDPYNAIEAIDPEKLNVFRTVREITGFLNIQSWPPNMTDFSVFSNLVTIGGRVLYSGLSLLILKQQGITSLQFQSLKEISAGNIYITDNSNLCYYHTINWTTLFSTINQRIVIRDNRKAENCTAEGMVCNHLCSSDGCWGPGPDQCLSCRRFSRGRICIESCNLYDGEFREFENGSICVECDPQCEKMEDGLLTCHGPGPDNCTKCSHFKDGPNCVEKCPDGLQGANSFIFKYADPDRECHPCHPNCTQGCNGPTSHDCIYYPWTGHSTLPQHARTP

T2: FcγRIIa (167H) (UniProt P12318 36-218, limits assumed)
T2 sequence (looked up): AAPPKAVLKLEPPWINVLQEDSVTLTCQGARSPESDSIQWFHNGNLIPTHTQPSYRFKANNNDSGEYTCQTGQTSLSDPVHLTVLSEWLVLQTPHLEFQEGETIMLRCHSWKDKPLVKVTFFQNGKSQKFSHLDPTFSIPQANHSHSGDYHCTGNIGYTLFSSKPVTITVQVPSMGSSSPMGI


What was measured:
[1] = target: T3, recombinant human EGFR extracellular domain (human, UniProt P00533 25-645); assay: ELISA, coated EGFR ECD
T3 construct: extracellular domain

[2] = target: T4, recombinant human HER3 extracellular domain (human, UniProt P21860 20-643); assay: ELISA, coated HER3 ECD
T4 construct: extracellular domain

[3] = target: T1, recombinant human HER4 extracellular …; assay: ELISA, coated HER4 ECD
[4] = target: T5, recombinant human HER2 extracellular domain protein (human, UniProt P04626 23-652); assay: BLI, Protein A capture
T5 construct: range 23-652; Range is printed for the immunogen/panning protein; also called ErbB2; recombinant HER2 protein

[5] = target: T5, recombinant human HER2 extracellular …; assay: BLI, Protein A capture; remark: listed apart in the source
[6] = target: T5, recombinant human HER2 extracellular …; assay: BLI (ForteBio)
[7] = target: T5, recombinant human HER2 extracellular …; assay: BLI, Protein A capture; remark: listed apart in the source
[8] = target: T6, human HER2 expressed on tumor cells (human, UniProt P04626 23-1255); assay: flow cytometry, BT474 cells
T6 construct: whole, on cells; Cell line is named in each row's assay

[9] = target: T6, human HER2 expressed on tumor cells; assay: flow cytometry, RT-112 cells
[10] = target: T6, human HER2 expressed on tumor cells; assay: flow cytometry, BT474 cells, 10 µg/mL
FcγRIIIa (176F) = FcγRIIIa (176F) (UniProt P08637 17-208); assay: BLI (ForteBio)
Chain of FcγRIIIa (176F) (P08637 17-208 limits assumed): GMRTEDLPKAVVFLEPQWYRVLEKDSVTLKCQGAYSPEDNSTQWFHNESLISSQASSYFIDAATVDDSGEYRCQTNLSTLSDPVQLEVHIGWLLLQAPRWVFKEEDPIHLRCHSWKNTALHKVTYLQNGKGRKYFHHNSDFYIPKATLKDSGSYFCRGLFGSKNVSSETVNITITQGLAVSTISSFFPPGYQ

FcγRI = target: T7, FcγRI (UniProt P12314 16-288, limits assumed); assay: BLI (ForteBio)
T7 construct: also called CD64
T7 sequence (P12314 16-288 limits assumed): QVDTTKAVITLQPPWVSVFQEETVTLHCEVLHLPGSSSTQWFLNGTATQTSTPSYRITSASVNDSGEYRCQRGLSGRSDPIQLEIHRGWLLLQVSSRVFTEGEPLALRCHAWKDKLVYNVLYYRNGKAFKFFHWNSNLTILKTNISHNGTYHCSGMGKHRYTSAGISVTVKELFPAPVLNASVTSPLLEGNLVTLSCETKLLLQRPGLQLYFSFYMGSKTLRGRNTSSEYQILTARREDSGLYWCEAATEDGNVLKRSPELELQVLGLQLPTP

FcγRIIa (167H) = target: T2, FcγRIIa (167H); assay: BLI (ForteBio)
FcγRIIIa (176V) = FcγRIIIa (176V) (UniProt P08637 17-208, limits assumed); assay: BLI (ForteBio)
Chain of FcγRIIIa (176V) (P08637 17-208 F176V limits assumed): as the sequence (P08637 17-208 limits assumed) above, with F160V counted along it

Row | Binder | binding result [1] | binding result [2] | binding result [3] | Kd [4] [nM] | koff [4] [s⁻¹] | kon [4] [M⁻¹ s⁻¹] | also measured
1 | mAb2117 (antibody, V domains shown, also called anti-HER2 chimeric antibody mAb2117) VH: EVKIEESGGGLVKPGGSLKLSCAASGFTYSSYGMSWVRQTPEKRLEWVASISGGGSYTKYPDSVKGRFTISRDNAKNHLYLQMSSLRSEDTALYYCARDYAGFFDVWGAGTTVTVSS VL: DVVLTQTPLSLPVSLGDQASISCRSSQSLVHSNGNTYLHWYLQKPGQSPKLLIYKVSNRFSGVPDRFSGSGSGTDFTLKISRVEAEDLGVYFCSQSTHVPYTFGGGTKLEIK | no binding | no binding | no binding | 4.28 | 0.00166 | 388000 | 
2 | mAb2126 (antibody, human IgG1, V domains shown, also called anti-HER2 chimeric antibody mAb2126) VH: QIQLAQSGPELKKPGETVKISCKASGYTFTDYSMHWVKQAPGKYLKWMGWINTETGEPTYADDFKGRFAFSLETSANTAYLQINNLKNEDTATYFCVRVGRYDYAMDYWGQGTSVTVSS VL: DIVMTQSHKFMSTSVGDRVSITCKASQDVYTAVAWYQQKPGQSPKLLINSASYRYTGVPDRFTGSGSGTDFTFTISSVQAEDLAVYYCQQHYSTPPTFGGGTKLEIK | no binding | no binding | no binding | 1.44 | 9.67e-05 | 67300 | Kd [5]: 5.2 nM; koff [5]: 0.000502 s⁻¹; kon [5]: 96600 M⁻¹ s⁻¹
3 | Hu2117HK (Fc fusion, Hu2117-H1 + Hu2117-K1; also called hu2117-H1K1; humanized single-chain antibody Hu2117HK; not shown: human IgG1 Fc) scFv: EVQLVESGGGLVQPGGSLRLSCAASGFTYSSYGMSWVRQAPGKGLEWVASISGGGSYTKYPDSVKGRFTISRDNSKNTLYLQMNSLRAEDTAVYYCARDYAGFFDVWGQGTLVTVSSGGGGSGGGGSGGGGSDIQMTQSPSSLSASVGDRVTITCRSSQSLVHSNGNTYLHWYQQKPGKAPKLLIYKVSNRFSGVPSRFSGSGSGTDFTLTISSLQPEDFATYFCSQSTHVPYTFGQGTKVEIK |  |  |  |  |  |  | Kd [6]: 178 nM; koff [6]: 0.00296 s⁻¹; kon [6]: 16600 M⁻¹ s⁻¹; Kd [7]: 11.4 nM; koff [7]: 0.00105 s⁻¹; kon [7]: 91700 M⁻¹ s⁻¹; EC50 [8]: 0.107 mg/L; EC50 [9]: 0.0593 mg/L
4 | Hu2117-HK201 (Fc fusion, scFv-hIgG1 Fc; not shown: human IgG1 Fc) scFv: EVQLVESGGGLVQPGGSLRLSCAASGFTYSSYGMSWVRQAPGKGLEWVASISGGGNYAKYVDSVKGRFTISRDNSKNTLYLQMNSLRAEDTAVYYCARDYAGFFDVWGQGTLVTVSSGGGGSGGGGSGGGGSDIQMTQSPSSLSASVGDRVTITCRSSQSLVHSNRNTYLHWYQQKPGKAPKLLIYKVSNRFSGVPSRFSGSGSGTDFTLTISSLQPEDFATYFCSQSTHVPYTFGQGTKVEIK |  |  |  |  |  |  | binding result [10]: binds
5 | mAb2128 (antibody, V domains shown, Chimeric human IgG1/Cκ) VH: EVQLQQSGPELVKPGASVKIPCKASGYTFTDYNMDWVKQSHGKSLEWIGDINPNNGGTIYNQKFKGKATLTVDKSSSTAYMELRSLTSEDTAVYYCARYGSGYGGFAYWGQGTLVTVSS VL: DIVLTQSPTTMAASPGEKITITCSASSSISSNYLHWYQQKPGFSPKLLIYRTSNLASGVPARFSGSGSGTSYSLTIGTMEAEDVATYYCQQGSSIPRTFGGGTKLEIK | no binding | no binding | no binding | 3.44 | 0.000949 | 276000 | 
6 | 04BS-1123-ST06 (bispecific antibody, also called anti-HER2 biparatopic antibody 04BS-1123-ST06) heavy: QVQLVESGGGLVQPGGSLRLSCAASGFTYSSYGMSWVRQAPGKGLEWVASISGGGSYTKYVDKVKGRFTISRDNSKNTLYLQMNSLRAEDTAVYYCARDYVGFFDVWGQGTLVTVSSGGGGSQVQLVQSGSELKKPGASVKVSCKASGYTFTDYSMHWVRQAPGQGLEWMGWINTGTGEPTYADDFKGRFTISRDTSKSTAYLQISSLKAEDTAVYYCVRVGRYDYAMDYWGQGTTVTVSSASTKGPSVFPLAPSSKSTSGGTAALGCLVKDYFPEPVTVSWNSGALTSGVHTFPAVLQSSGLYSLSSVVTVPSSSLGTQTYICNVNHKPSNTKVDKRVEPKSCDKTHTCPPCPAPEFEGGPSVFLFPPKPKDTLMISRTPEVTCVVVDVSHEDPEVKFNWYVDGVEVHNAKTKPREEQYNSTYRVVSVLTVLHQDWLNGKEYKCKVSNKALPASIEKTISKAKGQPREPQVYTLPPSRDELTKNQVSLTCLVKGFYPSDIAVEWESNGQPENNYKTTPPVLDSDGSFFLYSKLTVDKSRWQQGNVFSCSVMHEALHNHYTQKSLSLSPGK light: DIQMTQSPSSLSASVGDRVTITCRSSQSLVHSNRNTYLHWYQQKPGKAPKLLIYKVSNRFSGVPSRFSGSGSGTDFTLTISSLQPEDFATYFCSQSTHVPYTFGQGTKVEIKGGGGSGGGGSGGGGSDIQMTQSPSSLSASVGDRVTITCRASQDVYTAVAWYQQKPGKAPKLLINLASSRPTGVPSRFSGSGSGTDFTLTISSLQPEDFATYYCQQYYSTPPTFGGGTKVEIKRTVAAPSVFIFPPSDEQLKSGTASVVCLLNNFYPREAKVQWKVDNALQSGNSQESVTEQDSKDSTYSLSSTLTLSKADYEKHKVYACEVTHQGLSSPVTKSFNRGEC | no binding | no binding | no binding |  |  |  | binding result (FcγRIIIa (176F)): no binding; binding result (FcγRI): no binding; binding result (FcγRIIa (167H)): no binding; binding result (FcγRIIIa (176V)): no binding
